The supplement of paper PMC9112550, “Optimization of the antimicrobial peptide Bac7 by deep mutational scanning” (BMC Biology, 2022)

system: Escherichia coli TOP10; assay: shrunken log2 fold change of peptide-encoding DNA abundance (4.5 h post-induction vs induction); higher = less antimicrobial activity (less host growth inhibition); settings: time post-induction: 4.5 h; library: site-saturation at positions 5, 18, 19, 20
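Also: peptides expressed intracellularly from a pBAD plasmid library in pooled LB shake-flask culture, induced with 0.3% L-arabinose, DNA abundance read by NGS, three biological replicates, DESeq2 with apeglm shrinkage.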

Sequence | shrunken log2 fold change
RRIRPRPPRLPRPRPRPAYVPRP | -0.241
RRIRQRPPRLPRPRPRPQWRPRP | 0.419
RRIRKRPPRLPRPRPRPCQFPRP | -0.117
RRIRYRPPRLPRPRPRPLEEPRP | -0.0801
RRIRPRPPRLPRPRPRPYCSPRP | -0.294
RRIRQRPPRLPRPRPRPGRQPRP | 0.021
RRIRCRPPRLPRPRPRPANFPRP | -0.0131
RRIRQRPPRLPRPRPRPHCKPRP | -0.187
RRIRRRPPRLPRPRPRPAPPPRP | 0.778
RRIRVRPPRLPRPRPRPSIYPRP | -0.482
RRIRGRPPRLPRPRPRPHTPPRP | 0.339
RRIRDRPPRLPRPRPRPAMIPRP | -0.129
RRIRGRPPRLPRPRPRPAVCPRP | 0.938
RRIRVRPPRLPRPRPRPDMVPRP | -0.0411
RRIRGRPPRLPRPRPRPRAFPRP | 0.793
RRIRCRPPRLPRPRPRPFTDPRP | -0.182
RRIRNRPPRLPRPRPRPSQQPRP | -0.111
RRIRTRPPRLPRPRPRPFKLPRP | -0.0476
RRIRWRPPRLPRPRPRPRGQPRP | 0.302
RRIRCRPPRLPRPRPRPTYPPRP | -0.274
RRIRLRPPRLPRPRPRPSHAPRP | 0.212
RRIRQRPPRLPRPRPRPETNPRP | 0.0137
RRIRGRPPRLPRPRPRPNQWPRP | 0.259
RRIRFRPPRLPRPRPRPNCRPRP | 0.0638
RRIRARPPRLPRPRPRPIGNPRP | 0.00902

Sequence | shrunken log2 fold change
RRIRGRPPRLPRPRPRPVLQPRP | 0.142
RRIRIRPPRLPRPRPRPWDDPRP | -0.391
RRIRKRPPRLPRPRPRPYLCPRP | -0.0593
RRIRGRPPRLPRPRPRPWNRPRP | -0.0647
RRIRRRPPRLPRPRPRPYAAPRP | 0.395
RRIRCRPPRLPRPRPRPFIDPRP | -0.464
RRIRGRPPRLPRPRPRPWLGPRP | 0.245
RRIRTRPPRLPRPRPRPHVAPRP | 0.268
RRIRSRPPRLPRPRPRPFPKPRP | 0.107
RRIRIRPPRLPRPRPRPACRPRP | 0.225
RRIRHRPPRLPRPRPRPKDAPRP | -0.112
RRIRERPPRLPRPRPRPTQWPRP | 0.00138
RRIRGRPPRLPRPRPRPAYPPRP | -0.0884
RRIRLRPPRLPRPRPRPHSPPRP | -0.252
RRIRARPPRLPRPRPRPVYCPRP | -0.175
RRIRQRPPRLPRPRPRPWKGPRP | 0.013
RRIRNRPPRLPRPRPRPHSDPRP | 0.0373
RRIRHRPPRLPRPRPRPRYPPRP | 0.0331
RRIRARPPRLPRPRPRPIEEPRP | -0.0473
RRIRCRPPRLPRPRPRPYAAPRP | -0.269
RRIRNRPPRLPRPRPRPFCIPRP | -0.186
RRIRIRPPRLPRPRPRPVCPPRP | -0.0123
RRIRLRPPRLPRPRPRPPPAPRP | 1.52
RRIRWRPPRLPRPRPRPWLFPRP | 0.0264
RRIRYRPPRLPRPRPRPRLVPRP | -0.0287

Sequence | shrunken log2 fold change
RRIRHRPPRLPRPRPRPISWPRP | -0.245
RRIRPRPPRLPRPRPRPWTVPRP | -0.155
RRIRYRPPRLPRPRPRPGRRPRP | 2.15
RRIRNRPPRLPRPRPRPYQQPRP | -0.388
RRIRLRPPRLPRPRPRPMLFPRP | -0.136
RRIRIRPPRLPRPRPRPMMRPRP | 0.116
RRIRVRPPRLPRPRPRPFTKPRP | -0.79
RRIRWRPPRLPRPRPRPHGNPRP | 0.132
RRIRDRPPRLPRPRPRPHLFPRP | 0.00233
RRIRRRPPRLPRPRPRPAWKPRP | 0.2
RRIRDRPPRLPRPRPRPVWTPRP | 0.0494
RRIRARPPRLPRPRPRPLYQPRP | 0.141
RRIRSRPPRLPRPRPRPAWIPRP | -0.0375
RRIRWRPPRLPRPRPRPKQMPRP | 0.113
RRIRLRPPRLPRPRPRPQKIPRP | 0.0459
RRIRYRPPRLPRPRPRPSDYPRP | -1.34
RRIRTRPPRLPRPRPRPRWKPRP | 0.0709
RRIRYRPPRLPRPRPRPVNMPRP | -0.47
RRIRNRPPRLPRPRPRPAYPPRP | 0.0183
RRIRKRPPRLPRPRPRPRFHPRP | 0.077
RRIRPRPPRLPRPRPRPDWNPRP | -0.0666
RRIRDRPPRLPRPRPRPIYKPRP | -0.175
RRIRKRPPRLPRPRPRPWYDPRP | -0.153
RRIRSRPPRLPRPRPRPSDSPRP | -0.612
RRIRERPPRLPRPRPRPLSSPRP | 0.00508

Sequence | shrunken log2 fold change
RRIRSRPPRLPRPRPRPRPGPRP | 0.658
RRIRFRPPRLPRPRPRPSVKPRP | -0.347
RRIRNRPPRLPRPRPRPFRCPRP | -0.0563
RRIRWRPPRLPRPRPRPLMVPRP | -0.0319
RRIRWRPPRLPRPRPRPYKVPRP | -0.482
RRIRQRPPRLPRPRPRPHFPPRP | -0.216
RRIRMRPPRLPRPRPRPWICPRP | 0.0396
RRIRVRPPRLPRPRPRPNKDPRP | -0.448
RRIRARPPRLPRPRPRPNIRPRP | -0.289
RRIRARPPRLPRPRPRPEGWPRP | 1.38
RRIRVRPPRLPRPRPRPCFKPRP | -0.243
RRIRGRPPRLPRPRPRPMALPRP | -0.0079
RRIRKRPPRLPRPRPRPKNVPRP | 0.0773
RRIRSRPPRLPRPRPRPSDTPRP | -0.396
RRIRFRPPRLPRPRPRPITWPRP | -0.972
RRIRLRPPRLPRPRPRPLEEPRP | 0.543
RRIRDRPPRLPRPRPRPYKMPRP | -0.17
RRIRSRPPRLPRPRPRPAMDPRP | 0.0404
RRIRRRPPRLPRPRPRPKVRPRP | 0.111
RRIRGRPPRLPRPRPRPWHKPRP | -0.299
RRIRERPPRLPRPRPRPFSSPRP | -0.0152
RRIRVRPPRLPRPRPRPKGEPRP | -0.0112
RRIRWRPPRLPRPRPRPEFMPRP | 0.635
RRIRQRPPRLPRPRPRPCVPPRP | -0.0509
RRIRKRPPRLPRPRPRPENNPRP | 0.179

Sequence | shrunken log2 fold change
RRIRSRPPRLPRPRPRPMCTPRP | 0.0289
RRIRKRPPRLPRPRPRPSNTPRP | -0.231
RRIRNRPPRLPRPRPRPSHWPRP | -0.17
RRIRLRPPRLPRPRPRPWSFPRP | 0.018
RRIRRRPPRLPRPRPRPHRCPRP | 0.0585
RRIRIRPPRLPRPRPRPHGPPRP | 0.0659
RRIRRRPPRLPRPRPRPYYEPRP | -0.572
RRIRWRPPRLPRPRPRPTSMPRP | -0.0665
RRIRYRPPRLPRPRPRPQYDPRP | -0.0291
RRIRERPPRLPRPRPRPLHEPRP | -0.65
RRIRCRPPRLPRPRPRPWCQPRP | -0.32
RRIRMRPPRLPRPRPRPPVQPRP | 0.378
RRIRKRPPRLPRPRPRPLYGPRP | -0.289
RRIRIRPPRLPRPRPRPRRQPRP | 0.0868
RRIRQRPPRLPRPRPRPNVWPRP | 0.134
RRIRMRPPRLPRPRPRPVQGPRP | 0.0203
RRIRGRPPRLPRPRPRPGMMPRP | -0.0297
RRIRVRPPRLPRPRPRPTDIPRP | -0.402
RRIRTRPPRLPRPRPRPLNFPRP | -0.446
RRIRTRPPRLPRPRPRPIASPRP | -0.0997
RRIRDRPPRLPRPRPRPDNDPRP | 0.212
RRIRFRPPRLPRPRPRPTMVPRP | -0.129
RRIRLRPPRLPRPRPRPSWDPRP | -0.0231
RRIRIRPPRLPRPRPRPIAYPRP | -0.32
RRIRHRPPRLPRPRPRPMKCPRP | -0.0796

Sequence | shrunken log2 fold change
RRIRFRPPRLPRPRPRPEMCPRP | -0.0817
RRIRSRPPRLPRPRPRPQGFPRP | -0.0809
RRIRGRPPRLPRPRPRPYLYPRP | -0.215
RRIRLRPPRLPRPRPRPEATPRP | 0.294
RRIRFRPPRLPRPRPRPLPDPRP | 0.138
RRIRFRPPRLPRPRPRPYASPRP | -0.0651
RRIRKRPPRLPRPRPRPTYLPRP | -0.201
RRIRWRPPRLPRPRPRPKTGPRP | 0.491
RRIRARPPRLPRPRPRPQIHPRP | -0.0277
RRIRGRPPRLPRPRPRPAESPRP | 0.764
RRIRVRPPRLPRPRPRPYNDPRP | -0.609
RRIRYRPPRLPRPRPRPPPDPRP | 0.7
RRIRCRPPRLPRPRPRPHTMPRP | -0.371
RRIRHRPPRLPRPRPRPRQIPRP | -0.0442
RRIRFRPPRLPRPRPRPIGNPRP | -0.501
RRIRRRPPRLPRPRPRPDDPPRP | -0.0033
RRIRDRPPRLPRPRPRPKQFPRP | -0.00831
RRIRNRPPRLPRPRPRPESSPRP | -0.00568
RRIRHRPPRLPRPRPRPSEMPRP | -0.0714
RRIRKRPPRLPRPRPRPVFGPRP | 0.176
RRIRHRPPRLPRPRPRPHMRPRP | -0.00342
RRIRHRPPRLPRPRPRPGKMPRP | -0.423
RRIRFRPPRLPRPRPRPGQWPRP | -0.00218
RRIRLRPPRLPRPRPRPMWCPRP | 0.214
RRIRRRPPRLPRPRPRPMDQPRP | 0.132
